# Laboratory results reported in the Immune Epitope Database (IEDB).
# Key:
# HLA-A*29:02 = test: IEDB peptide-MHC binding, purified MHC/direct/fluorescence; filed as Kd, often an IC50 or EC50 that approximates it; ≥ and ≤ were set here for values at or beyond the usual limits of such assays; details: source organism: Reston ebolavirus
# HLA-A*02:12 = test: as above
# HLA-A*68:02 = test: as above
# HLA-A*23:01 = test: as above
# HLA-A*02:11 = test: as above
# HLA-A*02:19 = test: as above
# HLA-A*24:03 = test: as above
# HLA-A*03:01 = test: as above
# HLA-B*07:02 = test: as above; details: source organism: Tai Forest virus - Cote d'Ivoire, Cote d'Ivoire, 1994
# HLA-A*02:16 = test: as above
# HLA-A*02:03 = test: as above
# HLA-B*51:01 = test: IEDB peptide-MHC binding, purified MHC/competitive/fluorescence; filed as Kd, often an IC50 or EC50 that approximates it; ≥ and ≤ were set here for values at or beyond the usual limits of such assays
# HLA-B*15:17 = test: as above
# HLA-A*26:01 = test: as above
# HLA-B*18:01 = test: as above
# HLA-B*15:01 [1] = test: as above; details: source organism: Reston ebolavirus
# HLA-B*27:03 = test: as above
# HLA-A*02:01 = test: as above
# HLA-B*39:01 = test: as above
# HLA-B*46:01 = test: as above
# HLA-B*57:01 = test: as above
# HLA-A*69:01 = test: as above
# HLA-B*15:01 [2] = test: IEDB peptide-MHC binding, purified MHC/direct/fluorescence; filed as Kd, often an IC50 or EC50 that approximates it; ≥ and ≤ were set here for values at or beyond the usual limits of such assays; details: source organism: Sudan ebolavirus - Maleo (1979)
# [3] = source organism: Reston ebolavirus
# [4] = source organism: Ravn virus - Ravn, Kenya, 1987
# [5] = source organism: Zaire ebolavirus
sequence,measurement,setting,value
LPRERFRKT,Kd,HLA-A*29:02,≥ 20 µM
same,Kd,HLA-A*02:12; [3],≥ 20 µM
same,Kd,HLA-A*68:02; [3],≥ 20 µM
same,Kd,HLA-A*23:01; [3],≥ 20 µM
same,Kd,HLA-A*02:11; [3],≥ 20 µM
same,Kd,HLA-A*02:19; [3],≥ 20 µM
same,Kd,HLA-A*24:03; [3],≥ 20 µM
same,Kd,HLA-A*03:01; [3],≥ 20 µM
same,Kd,HLA-B*07:02,0.179 µM
same,Kd,HLA-A*02:16; [3],≥ 20 µM
same,Kd,HLA-A*02:03; [3],≥ 20 µM
same,Kd,HLA-B*51:01; [3],≥ 20 µM
same,Kd,HLA-B*15:17; [3],≥ 20 µM
same,Kd,HLA-A*26:01; [3],≥ 20 µM
same,Kd,HLA-B*18:01; [3],≥ 20 µM
same,Kd,HLA-B*15:01 [1],≥ 20 µM
same,Kd,HLA-B*27:03; [3],≥ 20 µM
same,Kd,HLA-A*02:01; [3],≥ 20 µM
same,Kd,HLA-B*39:01; [3],≥ 20 µM
same,Kd,HLA-B*46:01; [3],≥ 20 µM
same,Kd,HLA-B*57:01; [3],≥ 20 µM
same,Kd,HLA-A*69:01; [3],≥ 20 µM
PQVLGGLSF,Kd,HLA-A*02:12; [4],≥ 20 µM
same,Kd,HLA-A*68:02; [4],≥ 20 µM
same,Kd,HLA-A*23:01; [4],≥ 20 µM
same,Kd,HLA-A*02:11; [4],≥ 20 µM
same,Kd,HLA-A*02:19; [4],≥ 20 µM
same,Kd,HLA-A*24:03; [4],≥ 20 µM
same,Kd,HLA-A*03:01; [4],≥ 20 µM
same,Kd,HLA-B*15:01 [2],0.475 µM
same,Kd,HLA-A*02:16; [4],≥ 20 µM
same,Kd,HLA-A*02:03; [4],≥ 20 µM
same,Kd,HLA-B*51:01; [5],≥ 20 µM
same,Kd,HLA-B*15:17; [5],≥ 20 µM
same,Kd,HLA-A*26:01; [5],≥ 20 µM
same,Kd,HLA-B*18:01; [5],≥ 20 µM
same,Kd,HLA-B*27:03; [5],≥ 20 µM
same,Kd,HLA-A*02:01; [5],≥ 20 µM
same,Kd,HLA-B*39:01; [5],≥ 20 µM
same,Kd,HLA-B*46:01; [5],≥ 20 µM
same,Kd,HLA-B*57:01; [5],≥ 20 µM
same,Kd,HLA-A*69:01; [5],≥ 20 µM
